The series can be described thus: soluble on expression in E. coli; label from the status in PepcDB or PDB records.
As for “PFWSCLHNQLWNYREADQNRINRNQLPLYGVEGRFERMNQHPNAGSHSFSIGVTEVLNSNLLIELRADDIEYVYQRSPGKIISVIIPTFEALTQFGVATITTQNTGEVEASYSLTFDCSTGVTLMEEQYFIIKPKETSIRSFKIYPTTNQAAKYTCSAILKDSDFSEVDRAECQFSTMATVLDNGSQITPFQPPKSSINDFFESIESIGKKLWEGLRDFITGKACRRKCSSFFDFSCHIQYIC”, the “soluble on expression in E. coli” value is “not soluble”.
Under “MSLIRSKYAFLQKLTRDLKMKSINIGEELEGATPPSVFIGSWNYPKVYAGPMIAPVQEEVEIFDSPERWIPERKTQEEIIDYRLNLVRGKQLVGVRDLDNHLVEKLQEISLSSGAIESEAQFRRKPRGLFFSEEQTPHGPSAVLENFEIENVKWDRELERAYHDTDLRAREAIVELHRKGTPFSAVQKALSVGALGEGKRRKLVPTRWSITACDSTLADHFLERVLEYEPIDTFRVHEFESLKNHYLILLTPSEWQYEWMEAFMKRDGRAMIFSDHETGKGKREYSRVGGCYYSAKMAVLDALDREEKQAGAIILREAYPGYVPLGVFNVRENVKNAMDTEPTMFNDLRGALEFIDSKLKLGLEAFRVRSNLLKELEVSRQTTLDSFFREGHHHHHH” stands “not soluble”.
The same measure for “MSLSDYAPGMTGGPTGFEGAERFQYNNTMSEGRAIEGIKALQAAGNAPAKISMLLTDGAIGQITKPFPEGGPSAKEVWERETGIEIDIVGAPAEDIFKKVMQDVTTGGGTFDIYTGPWNSTGDLVSSGGAVNCSDFVAKYQPDWADPERGTPTPEMEKLLYTYAGDYYSFSLDGDFQTWFYLKGLYEDPRVQDAFLSETGVALKTPDTWEEVDRISKFFTGKDFGNGPMYGNGNLMSPFWGLATFYARFASMDFPNYHFFDEDGNPNLNSDLGIQCAEEHVRSFEWCPPDALTFTWAEAYATMWNLQIPHTAIYTNLVKFGDGYNADGTPKSKATGMIGSHLPVGRRFGDQLNRRSVLYYHITAWISSQSQHPEAVYLFLQWLSSTRTYTWMAGNPGGYFDPMQQANFKEPLVASTYHPYAMETIPQTIARSVPSINFAGQTALDNALDEEIQAAITGQKSAREAMDAAQSKWERIIKRQKRNGIVDAIKASRATWPTIVDEGHHHHHH”: “soluble”.
Under “MKQKRSSSGLKKRIFSTFGKASEERPSLLLLDLPIDILLAITKQLDTETRMIVRKVSPAFRDIIDYQGSGVKTMKIGKDCITIDWKRIEYREGVHCSCLIIYQGHIKTKIYESPQSLMFQDLSILLKSPRIRLSWLDLAPISCTSYNWTGVDVNSIVKILEPIKSRHIERVYFQDINYAEVVLILQKFKAGFLREISLDSEQINGWSIPQIGGMVHLEQWKRAQHLKIHSFVNLDPLINHISHFHTIQLLCQSMSKLQMLKWKEIINTSKTLVKCVLRGNANFAGLARVFDPAFEQAYGNISYVSADEFNCTIRFMPENFCIMKLK” stands “not soluble”.
For “MVASHSFEASILAYVLATELKRKGIEINPEHSALIALFHDAGETLLGDLPKWATSRINKRDAEVEAFDELGIGKELFLELKDLNTNEAKVAKLSDRLSTY”, the “soluble on expression in E. coli” value is given as “soluble”.
The same measure for “MGSSHHHHHHSSGLVPRGSHMAASTVAGELGLSITGLGVQYPPYSLGPDAIDILSKRYHPESPAMKKVLAINRYTGIDQRSSIGNPDHPLVNKPNPPTVKELHEVFMSDGVPLAVEASRKAMAEARLVPAQITHMVSTTCTDSANPGYDHYVAKELGLSDRLEKVLLHGIGCSGGLAALRTAANLCLGHTARGKPARILVLALEVSTTMVRSELESIDALQETRIGIALFSDCASAVILSNGIGEAPGKPAIYDLLGWENRVIPDSEHDLGFDVDPMGWKVVLSPRVPVLAKASLQPTYADLLSSLQDQLPSSYQKPADFDWAMHPGGATILSGAESAMGLTPEHMRASYDRYINHGNSSSATIFSVLNRLREKDMDALAPGGKVKEYVVGCAFGPGINVEMCMLKRRMNAPARTTTGLDTPPETDDSEGPGPGSSAGSDDGESIEGGEKEEKFINEALDNVELD”: “soluble”; for “MQQPEQYCRFLCLVAHEFFHLWNIKRIRPQAFEVFDYDSENYTTSLWFVEGVTSYFDQLIPLWAGLFDAPTYLKLLSDSLNRYFHTPGRFVQSLSAASFDAWIKLYRPDENSINSQMSYYLKGELVALLLDLRLEHHHHHH”: “not soluble”; for “FDFKAGEEVLARWTDCRYYPAKIEAINKEGTFTVQFYDGVIRCLKRMHIKAMPEDAKGQDWIALVKA”: “soluble”.
The same measure for “AFRGLRKGQFFDENALMLIATIAAFFVGAYEESVSIMVFYSAGEFLQKLAVSRSKKSLKALVDVAPNLAYLKKGDELVSVAPEDLRVNDIVVVKVGEKVPVDGVVVKGESLLDERALSGESMPVNVSENSKVLGGSLNLKAVLEIQVEKMYKDSSIAKVVDLVQ”: “not soluble”; for “HGPKTGTPETKTVEIPFETKREFNPKLQPGEERVKQEGQPGSKTITTPITVNPLTGEKVGEGQPTEEITKQPVDKIVEFGGEK”: “soluble”; for “MIRVMATGVFDILHLGHIHYLKESKKLGDELVVVVARDSTARNNGKIPIFDENSRLALISELKVVDRAILGHEGDMMKTVIEVKPDIITLGYDQKFDEAELQSKINKLGITVKIVRISKYDGQLNSSSSVRKKIMELIGERY”: “not soluble”.
Under “MGSDKIHHHHHHMWPNPALDTITHQWAQVFTNGGGLASLTDMIEQDVVVVGGGMVGAALAAGLGRAGLSVTVLENHMPQAFEASQPLDVRVSALSVASEALLERLDAWAGILSRRAVPYLGLETWEIESCITRFHASQIGADHLGHIVENRVVQLALWDLLSTLDSVTVKAPVNVMGFERLVDEDAICVALDSGERIKAKLLVGADGANSQVRAFAHIGVTGWDYAQSAMLINIATACEQQDVTWQQFTPQGPRSLLPLPGKNASLVWYDDASTIARLAKLNPNELADSIRAHFPARLDRDFRVLDKGHFKLTRRHAQRYFDANLVLIGDAAHTINPLAGQGVNLGFKDVDVLLDEIVSAVKKGENWHTKSVLERYQQRRWRDNQLMMSTMDAFYASFSNDLLPVKLLRNAALRLANVDGPIKRQVLKYAMGLK” stands “not soluble”.
For “MNALEPLFARLARSTFRSRFRLGIKERQYCWDKGAEVIDKHAADFIAQRLAPAHPANDGKQTPMRGHPVFIAQHATATCCRGCLAKWHQIPQGEPLSEAQQQYIVSVIHYWLVIQMNQR”, the “soluble on expression in E. coli” value was “not soluble”.
Under “SLKNTGYILALCLTASGHVLAHDVWITGKQAENNVTAEIGYGHNFPSKGTIPDRRDFFENPRLYNGKETITLKPASTDYVYKTESASKDNGYVLSTYMKPGYWSRTSSGWKPVSREGRNDVAYCEFVTKYAKSFIPGEQQMPAQLYQSPTGHELEIIPLSDISRFSENVKLKVLYKTSPLAGAIMELDSVSYLTSSRHTHAVEHKHPVHKAELTFVTNEDGIVTVPSLHIGQWLAKVQNKKSFQDKSLCDETVDVATLSFSRN” stands “not soluble”.
For the sequence “MIAAEAFAPHAALAQDLIPHAADTGDGSHDLAHIHRVFRNAMRIHAGEGGDGNVLAASVLLHDCVAVEKNSPLRAQASRLAAEKASGILAGLGWQKQDIDAAAHAITTHSFSANIEPQTLEAKILQDADRLDAIGMVGAARCFYIAGRMGSALYDPADPLAKERPLDDRAFAIDHFETKLFKLADGFRTETGRQMAKARHERLKQVLDLFLDEILEHHHHHH”, the “soluble on expression in E. coli” value is listed as “soluble”.
For “MKRRRLLQSLLAGLALQPFLAASANVRIRQARAWNSSESWRLVLELDGPPRYRTFSLQAPERLILDLPDAQLLATLSELPLDGPVRAIRSGQLGGGGTRIVLDLRQAVRPRSFALEPQAGKGHRLVLDLYPQALAAPPEPMLALARPLPSTGRDILVVVDAGHGGKDPGAVGSKGEREKDVALAIARLLARRIDREKGFKARLVRNGDVFVPLRKRPEVARRYNADMFVSVHADAAPRLTASGASVYALSEHGASSTMARWMAERENGADLIGNSGNLPLQGRDKVLAGVILDMALSSTIASSLDLGHSVLGQLSDVTALHQKRVEQAGFAVLKSPDIPSILVETGFISNRGDCRRLMDERHRQRLAEAIFAGVQGYFRQRPPAGSYLAALSAQPPG”, the “soluble on expression in E. coli” value was “not soluble”.
The same measure for “MSLYKADMLGDAYEYLIKQFADDAGKKGGEFYTPKAVVQLVVELIDPRPGHSVYDPTCGSGGMLVESAHHVSGLPDGTLMGKPNVLLYGQEKNLGTWAIAKLNLYLHNMHASIERGDTLVEPKHLDGDYLKTFDRVIANPPFSAKSWWTPLELSNENEQENGKKVKAPNYKQVSDPYGRLVYGVPPRGYADLAFAQHMLASLKADGRMGVILPHGVLFRSGEEGKIREGLLFGTGAASGNQPGDVIEAIVGLPSALFYNTGIPACVLILNKQKPSALKDKVIIIDGSRDYLEGKAQNSLHAEDILRIVSTHKAAFEQQVEVENYCRLVTLDEIRSNDGNLNIVRYIDNGESDEVVNVAATLAHMATLAKEEAQIDQRLNRYLMELGLLETGEGHHHHHH”: “not soluble”; for “MGSDKIHHHHHHMTAGGLHNGSGGMESARHCRELVERWLADGSFDARLPEVVRLRGVLQPEQYHAEGDAWTHTMLAMEAVPDDADPRVFWGVLLHDIGKAETTAFIKGRWRSWGHAEAGAGEVSAIMTRLGFPHLAADVTWLVKHHTFHFSWNLTPGARLSPKQRRFMEHPLFPLLLEVCDADAAGSRGGSDKGVKIGQLADMYADVTKGWADS”: “not soluble”.
Under “MGSDKIHHHHHHMTGVQFIDVTDSEAIFDDNQWDAVVLVTHGLDAIAQEELAMLASHGAQVDARVGRSTTLLFAPGLAGGRLIVAPVADGDSDIQDVRGYSDAARQGIKVAFDAGARRPLLIVTPSTQARYAQSMGVAALGCAQALWQSLERREVLGEMDNISQIGLLVDDKAGELLCAIEAGKHLARDLCGTEPERMSAPAFAQYCVDALEGLDLTMSVVEDRDVLERDYPLLSAVGRASFAVSRHQPRVVKLEYKAEGPIERSYFFAGKGVVYDTGGADLKVGGAMAGMSRDKGGAAAVAGLMKTLALLKPKGVRVVAELGLVRNSIGSEAFVTDEIITSHAGVRVRIGNTDAEGRLVLADLLSHLRLKAQDAVAPQLFSVATLTGHVVRAYGGYTAVVENAVARQQQVGDSLQTISEAWGEPIEVSRLRRDDYQKIVDPSGAADVLSSNNAPSSVTARGHQYPAAFLLKASGLEAHGLTSDKPLAYTHVDIAGSATEGDPLYGTPTAAPLVSLCQLIRG” stands “not soluble”; under “VAAALGVKPPETATTPEIVVGRPPELCKGCGHRDMFDAINIAIKENADHHVFSDIGCYTLGALPPYNAIHTCVDMGAAITMAKGAADAGLRPAVCVIGDSTFAHSGMTGLLDAVNDRTPVTVIIADNNTTAMTGGQCSSASGSKLVNICIGLGVEEAHIRTIVPLRQHLHENVSVLRDEFAYNGVSVVIAQRECIETAAKKKRRAAASAQ”, “not soluble”; under “MGSDKIHHHHHHMPETAHGVPVSTVKPDGAAMALKSKLLLIILDGVPYRNWRRLMGNLEGWVQSGEARVWKMRSVLPSTSACCYASIHTGVSPQVHGILSNENRFRVGQPDIFSEVSKAGGKTGAVTHSYWSEFFRSYPFDLVEDMEYDEPGGPITHGRFHTMTGYNARNQMTPSDVDLFATLTMLTKRHGIDYGILHTCTLDSMGHRFGNDCHEMDHAVYAMDGMLAAFLPGWIAAGYEVMVTADHGQTDRGHHGGHDDEMQDFALYYFGQGQGPETDTLLDQLQLAPTVLSRLGVPVPATMKAKPFLS”, “not soluble”.
Take “HLEDVKFMIVGLPDVGLVGAITGMHLIRSKDMSYTVGIDHYGALPPVVIMNRGRVLHPIRIYRSGDVAALITDVPILPAAIPSFSAAVVEYSRRRGIEYIISATGVGNPKRLEQEKPSLYWLASDKKASLLASSLRMASEPEQGIIVGPYAIILKEAMKKHVHNLVLLADSFIDIPDPEAAAVIVEGINSITGLNVSVDELIKQAEEIKLRMRDLMKETKAVMARMGKEMEYRAPILYT”: the “soluble on expression in E. coli” value is listed as “not soluble”.

The values above are taken from the DeepSol protein solubility set.
